From patent US20220348635A1, “COMPOSITIONS AND METHODS FOR NEUROLOGICAL DISEASES” (Coda Biotherapeutics, Inc., priority 2019, published 2022)

Key:
Assay type in all cases: cell-based
[1] = YFP quench plate reader assay, response to acetylcholine; details: LX293T YFP reporter cells
Text: (§1) FIGS. 1A-FIG. 1G show the heat maps of the percent quench of YFP fluorescence in the mutants of the engineered chimeric receptor SEQ ID NO:33 that comprise the indicated double amino acid substitutions following stimulation by various doses of either acetylcholine or the indicated non-native ligand. Ligand doses are written across the top of each chart. Numbers in the boxes indicate the absolute amount of quench observed. Dark blue=80% maximal quench of YFP reporter. Light blue=quench of 30-80%. White=10-30%. Orange=0-10% quench. Negative values represent non-responders that have a negative quench due to a stimulation artifact. SEQ ID NO:29 is a non-responding chimera used as a negative control. Abbreviations for non-native ligand names: abt: ABT-126; ach: acetylcholine; apn: APN-1125; azd: AZD-0328; brd: TC-5619; fac: RG3487; tc6: TC-6987.
(§2) Tables 2-8 below lists percent quench of YFP fluorescence following stimulation of the indicated engineered receptor by various doses of either acetylcholine or the non-native ligand.
(§3) To screen these mutant LGICs for those having novel response profiles to ligands, an anion reporter assay was developed to assess the function of channels in a high throughput format. In this assay, cells expressing a YFP reporter whose fluorescence is quenched in the presence of anion are transfected with DNA encoding the channel of interest. Upon exposure to ligand, channels that are activated will flux anion, resulting in a dose-dependent quench of the YFP that can be detected on a plate reader.
(§4) Lenti-X 293T cells (LX293T, Clontech) were maintained in DMEM containing 10% FBS and 1% penicillin/streptomycin (Invitrogen). […] Two days before assay, cells were split at a density of 20,000 cells/well in a 96-well tissue culture plate coated with poly-d lysine (Thermo Scientific). The next day, the cells were transiently transfected with 0.1 μg of DNA per well using standard Fugene protocol (Promega). On the day of assay, cells were washed 2 times in 1× extracellular solution (1×ECS: 140 mM NaCl, 5 mM KCl, 1 mM MgCl2, 2 mM CaCl2, 10 mM HEPES, 10 mM glucose, pH 7.2, mOsms 300). After the last wash, 100 μL of 1×ECS was added to the wells and the plate was incubated at 37° C. for 30 min. While incubating the plate, the drugs were diluted to a 2× concentration in 1×ECS-NaI (same components as 1×ECS except the 140 mM NaCl was replaced by 140 mM NaI). The plates were then read on a Flexstation3 (Molecular Devices). Each well, 8 wells at a time, of the plate is read for 2 min using a Flexstation3 (Molecular Devices) as follows: 1) a baseline YFP fluorescence is read for 17 sec, 2) 100 μL of ligand is added, and 3) the changes in YFP fluorescence are then measured every 1.3 sec for the remaining time.
(§5) FIG. 1 provides heat maps of the percent quench of YFP fluorescence following stimulation by various doses of either acetylcholine or the non-native ligand as indicated in the Figure. A positive fluorescence signal, as indicated by blue shaded cells, indicate that the engineered receptor is activated by the non-native ligand at that concentration. […] Table 12 lists the EC50 values for the indicated double mutants to acetylcholine (Ach) and TC-5619 as determined from the YFP fluorescence plate reader experiment.

[2] = YFP quench plate reader assay, response to AZD-0328; details: LX293T YFP reporter cells
Text: as §1, §2, §3, §4, §5

[3] = High throughput electrophysiology in HEK293T cells, AZD-0328
Method: To confirm the EC50s determined by plate reader as well as develop a better understanding of maximum current flow, the engineered receptors were subjected to high throughput electrophysiology system, as described below. For HEK293T studies, cDNAs encoding ion channels were cloned into pcDNA3.1 using standard recombination techniques. HEK293T cells from Clontech (Lenti-X™ 293T Cell Line) were cultured in DMEM supplemented with 10% FBS and 1% Pen/Strep to 40-50% confluence using standard cell culture protocols, transfected with ion channel plasmids at a concentration of 18 μg per 15 cm dish using Fugene 6, and grown for an additional 24 hours. Cells were then assayed on a electrophysiological system (IonFluxHT and/or Mercury, Fluxion Biosciences) in which dose-response relationships may be assessed through a microfluidics-based platform for establishing whole cell configurations. Ensemble plates were primed with extracellular buffer (140 mM NaCl, 5 mM KCl, 2 mM CaCl2), 1 mM MgCl2, 10 mM HEPES, and 10 mM glucose, pH 7.2 with NaOH, mOsm 310), intracellular buffer (145 mM CsCl, 2 mM CaCl2, 2 mM MgCl2, 10 mM HEPES, and 10 mM EGTA, pH 7.2 with CsOH, mOsm 305), as adapted from Lynagh and Lynch, and test compounds (stocks prepared fresh) diluted in extracellular buffer. Cells were then released from the plate with Accutase, centrifuged, resuspended in extracellular buffer, and loaded into Ensemble plates. Cells were then subjected to a standard protocol for priming, trapping, breaking, and establishing whole cell configuration, with cells held at −60 mV throughout the recording. After recording baseline, progressive doses of test compounds were applied using the IonFlux software to assess dose response relationships. Data were then analyzed off-line using custom Python scripts to convert data to .csv format, re-plot traces, and apply QC measurements to reject unstable recordings (i.e. thresholding based on access resistance and/or standard deviation in baseline, as well as artifact rejection). Peak currents were then calculated and population data were fit using a 4-parameter logistic equation as described by the Hill Equation. Currents were measured on an automated patch clamp system (Fluxion Biosciences) following 1 second addition of drug and the EC50 values calculated are tabulated below in Table 13.

[4] = YFP quench plate reader assay, response to ABT-126; details: LX293T YFP reporter cells
Text: as §1, §2, §3, §4, §5

[5] = YFP quench plate reader assay, response to APN-1125; details: LX293T YFP reporter cells
Text: as §1, §2, §3, §4, §5

[6] = YFP quench plate reader assay, response to TC-5619; details: LX293T YFP reporter cells
Text: as §1, §2, §3, §4, §5

[7] = YFP quench plate reader assay, response to TC-6987; details: LX293T YFP reporter cells
Text: as §1, §2, §3, §4, §5

[8] = YFP quench plate reader assay, response to RG3487; details: LX293T YFP reporter cells
Text: as §1, §2, §3, §4, §5

[9] = High throughput electrophysiology in HEK293T cells, RG-3487
Method: To confirm the EC50s determined by plate reader as well as develop a better understanding of maximum current flow, the engineered receptors were subjected to high throughput electrophysiology system, as described below. For HEK293T studies, cDNAs encoding ion channels were cloned into pcDNA3.1 using standard recombination techniques. HEK293T cells from Clontech (Lenti-X™ 293T Cell Line) were cultured in DMEM supplemented with 10% FBS and 1% Pen/Strep to 40-50% confluence using standard cell culture protocols, transfected with ion channel plasmids at a concentration of 18 μg per 15 cm dish using Fugene 6, and grown for an additional 24 hours. Cells were then assayed on a electrophysiological system (IonFluxHT and/or Mercury, Fluxion Biosciences) in which dose-response relationships may be assessed through a microfluidics-based platform for establishing whole cell configurations. […] Data were then analyzed off-line using custom Python scripts to convert data to .csv format, re-plot traces, and apply QC measurements to reject unstable recordings (i.e. thresholding based on access resistance and/or standard deviation in baseline, as well as artifact rejection). Peak currents were then calculated and population data were fit using a 4-parameter logistic equation as described by the Hill Equation. […]

B1: L131D, S172D in SEQ ID NO: 33: engineered chimeric α7-nAChR/GlyRα1 LGIC receptor: SEQ ID NO: 33 with substitutions L131D and S172D (protein)
chain: MRCSPGGVWLALAASLLHVSLQGEFQRKLYKELVKNYNPLERPVANDSQPLTVYFSLSLLQIMDVDEKNQVLTTNIWLQMSWTDHYLQWNVSEYPGVKTVRFPDGQIWKPDILLYNSADERFDATFHTNVDVNSSGHCQYLPPGIFKSSCPMDLKNFPMDVQTCKLKFGSWDYGGWSLDLQMQEADISGYIPNGEWDLVGIPGKRSERFYECCKEPYPDVTFTVTMRRRMGYYLIQMYIPSLLIVILSWISFWINMDAAPARVGLGITTVLTMTTQSSGSRASLPKVSYVKAIDIWMAVCLLFVFSALLEYAAVNFVSRQHKELLRFRRKRRHHKSPMLNLFQEDEAGEGRFNFSAYGMGPACLQAKDGISVKGANNSNTTNPPPAPSKSPEEMRKLFIQRAKKIDKISRIGFPMAFLIFNMFYWIIYKIVRREDVHNQ
modifications: synthetic sequence of chimeric LGIC
Q: Which results are given for B1?
A: percent quench of YFP fluorescence, 10 uM ach ([1]; 10 uM acetylcholine): −12.91%; percent quench of YFP fluorescence, 100 uM ach ([1]; 100 uM acetylcholine): −20.88%; percent quench of YFP fluorescence, 1 mM ach ([1]; 1 mM acetylcholine): 79.85%; percent quench of YFP fluorescence, 3 mM ach ([1]; 3 mM acetylcholine): 79.98%; percent quench of YFP fluorescence, 100 nM azd ([2]; 100 nM AZD-0328): 51.44%; percent quench of YFP fluorescence, 300 nM azd ([2]; 300 nM AZD-0328): 77.12%; percent quench of YFP fluorescence, 30 uM azd ([2]; 30 uM AZD-0328): 79.26%; fold increased potency towards AZD-0328 compared to wild type receptor [3]: at least 10 fold; percent quench of YFP fluorescence, 50 nM abt ([4]; 50 nM ABT-126): −3.19%; percent quench of YFP fluorescence, 100 nM abt ([4]; 100 nM ABT-126): 7.58%; percent quench of YFP fluorescence, 300 nM abt ([4]; 300 nM ABT-126): −1.65%; percent quench of YFP fluorescence, 1 uM abt ([4]; 1 uM ABT-126): 31.29%; percent quench of YFP fluorescence, 100 nM apn ([5]; 100 nM APN-1125): 71.72%; percent quench of YFP fluorescence, 1 uM apn ([5]; 1 uM APN-1125): 77.26%; percent quench of YFP fluorescence, 30 uM apn ([5]; 30 uM APN-1125): 77.5%; percent quench of YFP fluorescence, 1 nM brd ([6]; 1 nM TC-5619): −1.24%; percent quench of YFP fluorescence, 3 nM brd ([6]; 3 nM TC-5619): 0.25%; percent quench of YFP fluorescence, 10 nM brd ([6]; 10 nM TC-5619): −2.57%; percent quench of YFP fluorescence, 30 nM brd ([6]; 30 nM TC-5619): 0.78%; percent quench of YFP fluorescence, 100 nM brd ([6]; 100 nM TC-5619): 4.51%; percent quench of YFP fluorescence, 300 nM brd ([6]; 300 nM TC-5619): 30.97%; percent quench of YFP fluorescence, 1 uM brd ([6]; 1 uM TC-5619): 44.41%; percent quench of YFP fluorescence, 1 uM tc6 ([7]; 1 uM TC-6987): −18.24%; percent quench of YFP fluorescence, 10 uM tc6 ([7]; 10 uM TC-6987): −23.06%; percent quench of YFP fluorescence, 500 uM tc6 ([7]; 500 uM TC-6987): −19.3%; percent quench of YFP fluorescence, 30 nM fac ([8]; 30 nM RG3487): 24.15%; percent quench of YFP fluorescence, 300 nM fac ([8]; 300 nM RG3487): 80.17%; percent quench of YFP fluorescence, 10 uM fac ([8]; 10 uM RG3487): 81.34%; percent quench of YFP fluorescence, 30 uM fac ([8]; 30 uM RG3487): 79.9%; fold increased potency to RG-3487 compared to wild type receptor [9]: at least 10 fold
